Test results taken from article PMC8868134, “Molecular Determinants for OMF Selectivity in Tripartite RND Multidrug Efflux Systems” (Antibiotics, 2022).

T1: OprM wild type (outer membrane factor) (Pseudomonas aeruginosa, UniProt Q51487 18-485)
T1 construct: OprM, outer membrane factor of MexA-MexB-OprM, Pseudomonas aeruginosa; Stabilised in biotinylated amphipol (BNAPol) for BLI and in MSP1D1/POPC nanodiscs for the tripartite complexes; also called OprMwt; OMF; source: expressed and purified from bacteria
T1 sequence: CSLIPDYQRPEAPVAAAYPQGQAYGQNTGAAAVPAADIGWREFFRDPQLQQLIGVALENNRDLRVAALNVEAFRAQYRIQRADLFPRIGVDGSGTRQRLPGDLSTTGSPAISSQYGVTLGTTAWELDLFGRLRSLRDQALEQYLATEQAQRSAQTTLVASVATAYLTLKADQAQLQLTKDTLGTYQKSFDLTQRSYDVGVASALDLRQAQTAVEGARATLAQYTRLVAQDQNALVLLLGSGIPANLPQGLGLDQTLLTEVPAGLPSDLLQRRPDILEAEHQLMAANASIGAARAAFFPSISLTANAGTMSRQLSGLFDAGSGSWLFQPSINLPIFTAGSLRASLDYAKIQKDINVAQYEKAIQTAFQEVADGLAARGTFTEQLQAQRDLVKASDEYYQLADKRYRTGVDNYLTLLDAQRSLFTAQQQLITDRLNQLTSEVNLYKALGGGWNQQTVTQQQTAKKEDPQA

B1: MexA wild type (periplasmic adaptor protein of MexA-MexB-OprM) (natural protein)
chain: CGKSEAPPPAQTPEVGIVTLEAQTVTLNTELPGRTNAFRIAEVRPQVNGIILKRLFKEGSDVKAGQQLYQIDPATYEADYQSAQANLASTQEQAQRYKLLVADQAVSKQQYADANAAYLQSKAAVEQARINLRYTKVLSPISGRIGRSAVTEGALVTNGQANAMATVQQLDPIYVDVTQPSTALLRLRRELASGQLERAGDNAAKVSLKLEDGSQYPLEGRLEFSEVSVDEGTGSVTIRAVFPNPNNELLPGMFVHAQLQEGVKQKAILAPQQGVTRDLKGQATALVVNAQNKVELRVIKADRVIGDKWLVTEGLNAGDKIITEGLQFVQPGVEVKTVPAKNVASAQKADAAPAKTDSKG
notes: MexA, periplasmic adaptor protein of the MexA-MexB-OprM efflux system, Pseudomonas aeruginosa; Kept in 0.05% DDM; also called MexAwt; PAP; source: expressed and purified from bacteria

What was measured:
[1] = molecular target: TolC (outer membrane factor of E. coli) (Escherichia coli) (UniProt P02930); test: BLI; OMF or MexB stabilised in biotinylated non-ionic amphipol (BNAPol) immobilised on streptavidin (SAX) biosensors, MexA as analyte (0-100 uM for OMFs, 0-200 uM for MexB); BLItz device, room temperature; 10 mM Tris/HCl pH 7.4, 100 mM NaCl, 0.01% NaN3, 0.05% DDM; Langmuir 1:1 fit
[2] = molecular target: OprM C-terminal deletion variant OprM_(Δ473-485) (Pseudomonas aeruginosa) (UniProt Q51487); test: as above
[3] = molecular target: OprN (outer membrane factor) (Pseudomonas aeruginosa) (UniProt Q9I0Y7); test: as above
[4] = molecular target: MexA Q93R variant (Pseudomonas aeruginosa) (UniProt P52477); test: SEC + other: negative-staining EM; Superdex 200 PC 3.2/30 in 10 mM Tris/HCl pH 7.4, 100 mM NaCl, 0.01% NaN3, 0.05% DDM; peak fraction stained with uranyl acetate, single-particle average image
[5] = molecular target: OprM wild type (outer membrane factor) (Pseudomonas aeruginosa) (UniProt Q51487); test: BLI; OMF or MexB stabilised in biotinylated non-ionic amphipol (BNAPol) immobilised on streptavidin (SAX) biosensors, MexA as analyte (0-100 uM for OMFs, 0-200 uM for MexB); BLItz device, room temperature; 10 mM Tris/HCl pH 7.4, 100 mM NaCl, 0.01% NaN3, 0.05% DDM; Langmuir 1:1 fit
[6] = molecular target: MexB (RND inner membrane transporter) (Pseudomonas aeruginosa) (UniProt P52002); test: as above
[7] = molecular target: T1, OprM wild type (outer membrane factor); test: as above; conditions: both partners purified

| Molecule | Kd [1] | koff [1] | kon [1] | Kd [2] | koff [2] | kon [2] | Kd [3] | koff [3] | kon [3] | stoichiometry N [4] | Kd [5] | koff [5] | kon [5] | Kd [6] | koff [6] | kon [6] | Kd [7] | koff [7] | kon [7] |
| --- | --- | --- | --- | --- | --- | --- | --- | --- | --- | --- | --- | --- | --- | --- | --- | --- | --- | --- | --- |
| MexA wild type (periplasmic adaptor protein of MexA-MexB-OprM) (from UniProt P52477 24-383) (natural protein) | 45.8 µM | 0.0058 s⁻¹ | 127 M⁻¹ s⁻¹ | 44 µM | 0.00458 s⁻¹ | 103 M⁻¹ s⁻¹ | 20 µM | 0.00358 s⁻¹ | 177 M⁻¹ s⁻¹ | – | – | – | – | – | – | – | – | – | – |
| MexA Q93R variant (from UniProt P52477 24-383) (natural protein) | 17.8 µM | 0.00191 s⁻¹ | 108 M⁻¹ s⁻¹ | 25.7 µM | 0.00263 s⁻¹ | 102 M⁻¹ s⁻¹ | 26.9 µM | 0.00238 s⁻¹ | 88 M⁻¹ s⁻¹ | 6 | 32.9 µM | 0.00266 s⁻¹ | 81 M⁻¹ s⁻¹ | 17.4 µM | 0.003 s⁻¹ | 173 M⁻¹ s⁻¹ | – | – | – |
| B1 | – | – | – | – | – | – | – | – | – | – | – | – | – | – | – | – | 12 µM | 0.00215 s⁻¹ | 180 M⁻¹ s⁻¹ |
